biological target: HLA-A*02:01; assay: IEDB peptide-MHC binding, purified MHC/competitive/radioactivity; ≥ and ≤ were set here for values at or beyond the usual limits of such assays; settings: source organism: Trypanosoma cruzi

Q: For FVDYNFSLV, which IC50 is on record?
A: 1.1 nM

Q: For FANYNFTLV, which IC50 is on record?
A: 0.47 nM

Q: ELLRPTTLV was tested. Which IC50 did it give?
A: 2410 nM

Q: For IANYNFTLV, which IC50 is on record?
A: 29600 nM

Q: How did the IC50 turn out when GLLPSLLLLL was run?
A: 3.1 nM

Q: RVSRPTTVV was tested. Which IC50 did it give?
A: 2490 nM

Q: For FANNKFTLV, which IC50 is on record?
A: 116 nM

Q: For FANHDFTLV, which IC50 is on record?
A: 101 nM

Q: FLSHNFTLVF was tested. Which IC50 did it give?
A: 0.61 nM

Q: Which IC50 does the source give for FVSCDFTIV here?
A: 30 nM

Q: Which IC50 does the source give for FANYNFTLL here?
A: 1500 nM

Q: For RLLPSLLLLL, which IC50 is on record?
A: 0.8 nM

Q: Which IC50 does the source give for LLGLWGLATA here?
A: 24 nM

Q: For FVNYNFTLV, which IC50 is on record?
A: 0.25 nM

Q: SLSHYFTLVF was tested. Which IC50 did it give?
A: 1.6 nM

Q: FLSHDFTLV was tested. Which IC50 did it give?
A: 0.46 nM

Q: How did the IC50 turn out when FVNHRFTLV was run?
A: 304 nM

Q: With FANYKFTLV as the sequence, how does the IC50 read?
A: 49 nM

Reference: the Immune Epitope Database (IEDB)
